What was measured:
[1] = target: lysine peptide of Example 6 (printed as …, SEQ ID NO: 825), state with N-terminal AK; assay: single-molecule on-chip sequencing with PS691, PS610, PS961 and PS1165
[2] = target: acetyl-lysine peptide of Example 6 (printed as RLK{acetyl}FIAYPDDD, SEQ ID NO: 826), state with N-terminal AK{acetyl}; assay: as above

Chain of PS1165 (Q13490 other isoform, or with tags, fused parts or gaps): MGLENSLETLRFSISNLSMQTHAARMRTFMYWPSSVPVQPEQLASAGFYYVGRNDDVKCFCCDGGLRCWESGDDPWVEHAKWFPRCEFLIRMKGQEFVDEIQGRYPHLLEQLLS

RS mean PD [1]: 1.3 s | RS mean PD [2]: 2.2 s
Substance: PS1165 (from UniProt Q13490 250-361)

Reference: patent US20230213527A1, “COMPOSITIONS AND METHODS FOR POLYPEPTIDE ANALYSIS” (Quantum-Si Incorporated, priority 2021, published 2023)
